Results published in patent US20170037083A1 (AVIXGEN, published 2017).
Values belong to the binder of their own block, whether it stands above or below them. Where no end group is shown, it is not given here.

Assays:
[1] = biological target: T1, VEGFR-2 expressed in HUVECs (human, UniProt P35968 20-1356); experiment: flow cytometry (FACS) on HUVECs, FITC-RLYE 15 nM, VEGF-A 100 ng/ml added before or after
T1 construct: whole, on cells; On the surface of HUVECs in FACS, confocal microscopy and the cell assays; in detergent lysate of HUVECs in the pull-down assay; also called VEGF receptor-2
Procedure: HUVECs were cultured in a 60-mm culture plate for 24 hours. The cells were isolated from the plate with 5 mM EDTA-containing phosphate-buffered saline (PBS), washed with PBS three times, and suspended in 2% FBS/0.1% bovine serum albumin-containing PBS. Afterward, before or after the reaction with FITC-conjugated RLYE (15 nM), the cells were treated with VEGF (100 ng/ml), stored on ice for 30 minutes, fixed in 2% paraformaldehyde, and assessed with a fluorescence activated cell sorter (FACS Calibur, Becton Dickinson) by flow cytometry.
(§1) Subsequently, it was investigated whether RLYE (SEQ ID NO: 2) interacts with VEGFR-2 expressed in HUVECs. HUVECs were cultured with FITC-RLYE before or after VEGF-A treatment, and FACS was performed to examine an amount of RLYE (SEQ ID NO: 2) binding to the HUVECs. […] To examine binding between RLYE (SEQ ID NO: 2) and VEGF receptors, a pull-down assay was performed. […] Therefore, the binding between RLYE (SEQ ID NO: 2) and VEGFR-2 was identified as a strong bond having a small dissociation coefficient (194 nM), and it was also seen that RLYE (SEQ ID NO: 2) binds to VEGFR-2 at the same positions to which VEGF-A/C binds (immunoglobulin homology domains D2 and D3) (see FIG. 10A).

VEGFR-1 = biological target: T2, VEGFR-1 (human, UniProt P17948 27-1338); experiment: streptavidin-agarose pull-down from HUVEC lysate with biotin-labeled RLYE, immunoblot for VEGFR-1
T2 construct: whole, on cells; In detergent lysate of HUVECs in the pull-down assay; on IM-9 and RPMI 8226 cells and HUVECs in the functional assays; also called VEGF receptor-1
Procedure: HUVECs were lysed in a pull-down buffer [50 mM Tris-HCl (pH 8.0), 150 mM sodium chloride, 1.0% NP-40, 0.5% sodium deoxycholate and 0.1% SDS]. A lysate ([…] of proteins) was reacted with biotin-labeled RLYE (0.15 or 1.5 nM) for 1 hour, and reacted with streptavidin-agarose beads ([…]) at 4° C. for 1 hour. RLYE-binding proteins were isolated from the cell lysate through centrifugation, washed, and then boiled for 10 minutes. The bead-binding proteins were isolated by SDS-PAGE, and immunoblotting was performed with an antibody with respect to VEGFR-2 or VEGFR-1.
as §1

[2] = biological target: T1, VEGFR-2 expressed in HUVECs; experiment: cell-based or functional assay
rhVEGFR-2 = biological target: T3, rhVEGFR-2 (human, UniProt P35968 20-764, limits assumed); experiment: SPR (BIAcore), rhVEGFR-2 immobilised on the chip, RLYE injected
T3 construct: Immobilised on the carboxymethylated dextran chip for SPR; also called recombinant human VEGFR-2; VEGF receptor-2
Procedure: Binding dynamics and affinity of RLYE to rhVEGFR-2 were evaluated with BIAcore AB (Sweden). A carboxymethylated dextran biosensor chip (CMS, BIAcore AB) was activated with 1-ethyl-3-(3-dimethylaminopropyl)carbodiimide and N-hydroxysuccinimide according to the manufacturer's manual. The rhVEGFR-2 (1 ng/μl, 10 mM Hepes, 150 mM NaCl, 3 mM EDTA, 0.005% Tween-20-containing HBS-EP buffer) was injected over the activated CMS chip for fixation. Various concentrations of an RLYE solution was injected over the rhVEGFR-2-fixed center chip with a flow rate of 25 μl/min, and binding and non-binding characteristics between RLYE and the rhVEGFR-2 were analyzed. The peptide bonds were measured in arbitrary response units, and after the injection of each sample (120 sec), the HBS-EP buffer was passed over a sensor surface to monitor dissociation. The equilibrium dissociation constant (Kd) was derived to a fixing step-combined model.
Meanwhile, the interaction between RLYE (SEQ ID NO: 2) and rhVEGFR-2 was examined by SPR analysis.

T1 sequence (P35968 20-1356): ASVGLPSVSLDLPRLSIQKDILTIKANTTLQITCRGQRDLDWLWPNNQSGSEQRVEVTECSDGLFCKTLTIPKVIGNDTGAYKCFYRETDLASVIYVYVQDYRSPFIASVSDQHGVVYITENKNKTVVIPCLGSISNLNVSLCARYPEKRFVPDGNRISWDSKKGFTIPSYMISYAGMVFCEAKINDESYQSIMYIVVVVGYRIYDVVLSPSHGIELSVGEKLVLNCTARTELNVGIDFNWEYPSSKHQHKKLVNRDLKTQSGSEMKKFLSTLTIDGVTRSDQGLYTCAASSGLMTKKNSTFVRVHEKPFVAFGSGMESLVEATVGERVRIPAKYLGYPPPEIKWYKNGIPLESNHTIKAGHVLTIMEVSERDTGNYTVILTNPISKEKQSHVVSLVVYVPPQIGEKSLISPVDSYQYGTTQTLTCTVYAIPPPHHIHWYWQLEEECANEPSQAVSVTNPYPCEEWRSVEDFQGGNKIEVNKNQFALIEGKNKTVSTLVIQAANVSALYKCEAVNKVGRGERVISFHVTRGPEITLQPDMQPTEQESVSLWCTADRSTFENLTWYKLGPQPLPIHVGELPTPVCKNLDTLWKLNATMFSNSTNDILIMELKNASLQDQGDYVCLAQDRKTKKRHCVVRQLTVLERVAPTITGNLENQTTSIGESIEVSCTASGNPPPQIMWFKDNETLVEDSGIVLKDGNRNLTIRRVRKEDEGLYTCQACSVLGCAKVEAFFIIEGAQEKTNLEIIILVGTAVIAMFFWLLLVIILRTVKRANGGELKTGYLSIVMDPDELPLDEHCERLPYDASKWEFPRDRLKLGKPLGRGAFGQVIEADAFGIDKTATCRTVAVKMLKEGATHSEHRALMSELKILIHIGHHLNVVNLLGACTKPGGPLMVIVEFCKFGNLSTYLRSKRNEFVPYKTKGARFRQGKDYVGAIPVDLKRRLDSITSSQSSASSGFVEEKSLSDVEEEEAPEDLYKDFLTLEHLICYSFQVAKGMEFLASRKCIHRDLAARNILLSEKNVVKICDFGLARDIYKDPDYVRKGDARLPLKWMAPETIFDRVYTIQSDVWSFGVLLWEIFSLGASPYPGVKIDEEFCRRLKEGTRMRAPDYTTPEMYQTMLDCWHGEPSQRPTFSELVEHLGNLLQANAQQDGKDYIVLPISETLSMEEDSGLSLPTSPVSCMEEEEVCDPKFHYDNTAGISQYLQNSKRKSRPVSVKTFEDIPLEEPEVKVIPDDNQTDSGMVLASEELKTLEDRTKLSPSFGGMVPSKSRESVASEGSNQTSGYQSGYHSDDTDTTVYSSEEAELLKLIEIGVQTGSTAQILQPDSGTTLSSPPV
T3 sequence (P35968 20-764 limits assumed): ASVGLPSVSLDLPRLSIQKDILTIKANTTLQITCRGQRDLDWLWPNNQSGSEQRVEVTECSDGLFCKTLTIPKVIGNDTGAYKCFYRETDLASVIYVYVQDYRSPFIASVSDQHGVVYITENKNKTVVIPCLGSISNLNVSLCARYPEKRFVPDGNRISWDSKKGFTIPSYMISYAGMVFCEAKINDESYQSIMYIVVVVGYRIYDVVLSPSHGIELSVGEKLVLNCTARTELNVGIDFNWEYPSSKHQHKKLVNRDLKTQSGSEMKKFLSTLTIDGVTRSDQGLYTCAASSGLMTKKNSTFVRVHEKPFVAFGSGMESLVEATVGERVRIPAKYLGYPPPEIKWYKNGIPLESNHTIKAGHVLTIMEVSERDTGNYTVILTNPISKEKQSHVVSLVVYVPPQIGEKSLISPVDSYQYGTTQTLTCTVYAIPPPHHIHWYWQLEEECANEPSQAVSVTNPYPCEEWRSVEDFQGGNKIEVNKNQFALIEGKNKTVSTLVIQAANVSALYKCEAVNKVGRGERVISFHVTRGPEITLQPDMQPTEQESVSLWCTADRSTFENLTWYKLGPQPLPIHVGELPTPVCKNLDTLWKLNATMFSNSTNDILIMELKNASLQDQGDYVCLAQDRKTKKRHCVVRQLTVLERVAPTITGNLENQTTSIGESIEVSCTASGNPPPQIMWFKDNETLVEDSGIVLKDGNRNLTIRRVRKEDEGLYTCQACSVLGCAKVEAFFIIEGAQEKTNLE
T2 sequence (P17948 27-1338): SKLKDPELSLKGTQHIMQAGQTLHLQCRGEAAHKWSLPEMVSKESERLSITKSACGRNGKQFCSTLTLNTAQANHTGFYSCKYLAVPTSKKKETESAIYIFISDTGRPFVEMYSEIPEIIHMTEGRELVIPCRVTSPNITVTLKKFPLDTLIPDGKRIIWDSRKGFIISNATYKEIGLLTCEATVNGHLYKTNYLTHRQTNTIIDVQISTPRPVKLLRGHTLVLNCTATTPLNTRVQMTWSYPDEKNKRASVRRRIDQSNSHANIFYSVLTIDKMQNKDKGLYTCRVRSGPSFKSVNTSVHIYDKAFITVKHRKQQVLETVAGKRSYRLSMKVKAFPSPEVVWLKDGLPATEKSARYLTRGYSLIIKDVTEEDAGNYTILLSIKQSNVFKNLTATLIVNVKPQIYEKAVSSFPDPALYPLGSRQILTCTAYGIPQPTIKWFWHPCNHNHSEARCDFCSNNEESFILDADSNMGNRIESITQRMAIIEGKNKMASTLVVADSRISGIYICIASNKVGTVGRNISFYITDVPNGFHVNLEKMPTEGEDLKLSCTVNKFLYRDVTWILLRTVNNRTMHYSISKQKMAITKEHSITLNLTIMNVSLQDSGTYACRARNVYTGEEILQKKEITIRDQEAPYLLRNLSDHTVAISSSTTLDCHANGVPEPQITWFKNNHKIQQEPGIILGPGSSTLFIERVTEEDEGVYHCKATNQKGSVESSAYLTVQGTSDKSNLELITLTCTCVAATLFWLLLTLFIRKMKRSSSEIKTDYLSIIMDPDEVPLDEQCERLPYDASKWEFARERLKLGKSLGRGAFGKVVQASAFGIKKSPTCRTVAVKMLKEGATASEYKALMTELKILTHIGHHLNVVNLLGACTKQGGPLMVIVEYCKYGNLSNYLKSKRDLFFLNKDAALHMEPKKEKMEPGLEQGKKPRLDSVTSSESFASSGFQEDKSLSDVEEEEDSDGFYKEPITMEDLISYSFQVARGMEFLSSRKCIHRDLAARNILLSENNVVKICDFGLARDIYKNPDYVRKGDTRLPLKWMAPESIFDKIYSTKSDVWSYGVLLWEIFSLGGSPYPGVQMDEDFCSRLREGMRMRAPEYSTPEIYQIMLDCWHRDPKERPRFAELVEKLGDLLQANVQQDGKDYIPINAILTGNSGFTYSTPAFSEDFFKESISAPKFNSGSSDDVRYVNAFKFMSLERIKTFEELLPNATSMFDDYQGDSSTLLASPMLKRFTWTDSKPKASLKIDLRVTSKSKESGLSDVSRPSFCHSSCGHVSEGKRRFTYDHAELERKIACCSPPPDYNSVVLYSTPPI

binding result [1]: binds
B1: FITC-conjugated RLYE (peptide)
peptide: RLYE
modifications: also: FITC-conjugated, site not given here
notes: Used at 15 nM in FACS and at 100 ng/ml in confocal microscopy on HUVECs; also called FITC-RLYE

binding result (VEGFR-1): no binding
B2: biotin-labeled RLYE (peptide)
peptide: RLYE
modifications: also: biotin-labeled, site not given here
notes: Used at 0.15 or 1.5 nM in the pull-down from HUVEC lysate with streptavidin-agarose beads; also called biotinylated RLYE peptide

IC50 of VEGF-induced HUVEC migration (transwell) [2]: 0.06 nM
IC50 of VEGF-induced HUVEC proliferation ([3H]-thymidine incorporation) [2]: 0.08 nM
Kd (rhVEGFR-2): 9000 nM
B3: RLYE peptide (SEQ ID NO: 2) (peptide)
peptide: RLYE
notes: Unlabelled synthetic tetrapeptide, analyte in the SPR assay and used in the cell assays
